Assay results reported in PMC5758897 (Nucleic Acids Research, 2017).
Residue numbers refer to the chain shown, from its start. Each block holds one molecule with its values, some of them ahead of it. Where no end group is shown, it is not given here.

Experiments:
[1] = target: T1, YEATS domain of Yaf9 (WT, aa 8–171) (Saccharomyces cerevisiae, UniProt P53930); assay: 1H,15N HSQC NMR titration, Yaf9 YEATS WT; assay type: binding; details: free acetyllysine (NMR) vs H3K27ac peptide
T1 sequence (P53930 8-171): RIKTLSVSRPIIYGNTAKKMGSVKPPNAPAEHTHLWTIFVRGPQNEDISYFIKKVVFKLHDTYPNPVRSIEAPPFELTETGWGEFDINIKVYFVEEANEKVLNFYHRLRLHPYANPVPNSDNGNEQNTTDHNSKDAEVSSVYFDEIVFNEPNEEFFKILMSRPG

[2] = target: YEATS domain of Yaf9 (aa 8–171), wild type (S. cerevisiae) (UniProt P53930); assay: other fluorescence titration
[3] = target: T2, AF9 YEATS domain (aa 1–138), wild type (human, UniProt P42568 1-138); assay: other fluorescence titration
T2 sequence (looked up): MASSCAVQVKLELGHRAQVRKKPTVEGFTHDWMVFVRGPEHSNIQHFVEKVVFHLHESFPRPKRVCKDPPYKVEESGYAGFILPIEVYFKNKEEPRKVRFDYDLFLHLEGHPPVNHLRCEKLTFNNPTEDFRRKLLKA

[4] = target: T3, YEATS domain of Taf14 (aa 1–137), wild type (yeast, UniProt P35189 1-137); assay: other fluorescence titration
T3 sequence (looked up): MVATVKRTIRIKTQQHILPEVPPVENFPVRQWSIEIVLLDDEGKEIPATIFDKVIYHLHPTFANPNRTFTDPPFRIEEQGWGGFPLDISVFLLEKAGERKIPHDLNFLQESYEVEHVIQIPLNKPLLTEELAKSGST

[5] = target: T4, D104R mutant of Taf14-YEATS (aa 1–137) (yeast, UniProt P35189 1-137, D104R); assay: other fluorescence titration
T4 sequence (looked up): T3 sequence (looked up) with D104R

[6] = target: T5, G83E mutant of Taf14-YEATS (aa 1–137) (yeast, UniProt P35189 1-137, G83E); assay: other fluorescence titration
T5 sequence (looked up): T3 sequence (looked up) with G83E

[7] = target: T6, E91G mutant of Yaf9-YEATS (aa 8–171) (S. cerevisiae, UniProt P53930 8-171, E91G); assay: other fluorescence titration
T6 sequence (looked up): T1 sequence (P53930 8-171) with E84G

Molecule: CC(=O)NCCCC[C@H](N)C(=O)O [Kac, acetyllysine]
- binding of free acetyllysine weaker [1]: over 200 fold

- Kd [2]: 10 µM
Molecule: histone H3K27ac peptide (aa 21–31 of H3) (from UniProt P68431 22-32)

- binding result [3]: binds
- binding result [4]: binds
- binding result [5]: binds
- fold decrease in binding against WT Taf14-YEATS [6]: ~2 fold
- fold increase in binding against WT Yaf9-YEATS [7]: ~1.5 fold
Molecule: QTARK(Ac)STGG (peptide, UniProt P68431 6-14, looked up, also: biotinylated, site not given here) [histone H3K9ac peptide (aa 5–13 of H3)]
